Patent US20240132578A1

Columns and labels:
Experiment in all cases: cell-based or functional assay
[1] = target: HIV-1 Env of pseudovirus isolate MGRM-Chronic-B-003 (clade B) (HIV-1)
[2] = target: HIV-1 Env of isolate 92TH021 (pseudovirus) (HIV-1)
[3] = target: HIV-1 Env of isolate MG RM-A-007 (pseudovirus) (HIV-1)
[4] = target: HIV-1 Env of pseudovirus isolate CAAN.A2 (clade B) (HIV-1)
[5] = target: HIV-1 Env of isolate 92UG001 (HIV-1)
[6] = target: aMLV envelope (negative control pseudovirus) (aMLV)
[7] = target: HIV-1 Env of isolate MGRM-C-027 (subtype C), on pseudovirus (HIV-1)
[8] = target: HIV-1 Env of isolate MGRM-G-025 (subtype G) (HIV-1)
[9] = target: HIV-1 Env of isolate MGRM-C-005 (HIV-1)
[10] = target: HIV-1 Env of isolate MGRM-D-028 (HIV-1)
[11] = target: HIV-1 Env of pseudovirus isolate MGRM-C-019 (clade C) (HIV-1)
[12] = target: HIV-1 Env of isolate VLGCA1 (subtype A) (HIV-1)
[13] = target: HIV-1 JR-CSF Env I424A (HIV-1 (isolate JR-CSF)) (UniProt P20871)
[14] = target: HIV-1 Env of isolate MGRM-D-024 (HIV-1)
[15] = target: HIV-1 Env of isolate 98CN006 (pseudovirus) (HIV-1)
[16] = target: HIV-1 Env of isolate MGRM-A-014 (subtype A) (HIV-1)
[17] = target: HIV-1 MGRM-C-028 Env (HIV-1)
[18] = target: HIV-1 92UG005 Env (HIV-1)
[19] = target: HIV-1 envelope glycoprotein (Env) of isolate MG RM-AG-011 (HIV-1)
[20] = target: HIV-1 Env of pseudovirus MGRM-D-011 (HIV-1)
[21] = target: HIV-1 Env of pseudovirus MGRM-D-013 (HIV-1)
[22] = target: HIV-1 envelope glycoprotein (Env) of isolate MGRM-AE-007 (HIV-1)
[23] = target: HIV-1 Env of pseudovirus MGRM-F1-004 (HIV-1)
[24] = target: HIV-1 envelope glycoprotein (Env) of isolate MG RM-AG-005 (HIV-1)

Chain of 4970_K22 (PGT-144) (antibody) (VH): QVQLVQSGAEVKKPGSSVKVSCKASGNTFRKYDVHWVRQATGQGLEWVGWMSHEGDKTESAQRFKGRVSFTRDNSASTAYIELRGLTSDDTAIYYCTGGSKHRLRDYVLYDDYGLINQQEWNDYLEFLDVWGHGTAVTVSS
Chain of 4970_K22 (PGT-144) (antibody) (VL): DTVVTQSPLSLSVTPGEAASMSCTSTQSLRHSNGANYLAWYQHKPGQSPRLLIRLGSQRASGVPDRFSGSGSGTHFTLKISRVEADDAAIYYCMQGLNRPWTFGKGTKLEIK
Chain of PGT-143 (4980_N08) (antibody) (VH): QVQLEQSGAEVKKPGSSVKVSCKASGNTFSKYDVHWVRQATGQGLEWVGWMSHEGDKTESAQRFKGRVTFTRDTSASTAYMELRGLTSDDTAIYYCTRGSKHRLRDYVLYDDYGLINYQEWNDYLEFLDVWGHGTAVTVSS
Chain of PGT-143 (4980_N08) (antibody) (VL): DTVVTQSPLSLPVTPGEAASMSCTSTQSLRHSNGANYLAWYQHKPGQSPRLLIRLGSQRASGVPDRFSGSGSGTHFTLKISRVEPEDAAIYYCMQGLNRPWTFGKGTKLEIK
Chain of PGT-145 (4995_P16) (antibody) (VH): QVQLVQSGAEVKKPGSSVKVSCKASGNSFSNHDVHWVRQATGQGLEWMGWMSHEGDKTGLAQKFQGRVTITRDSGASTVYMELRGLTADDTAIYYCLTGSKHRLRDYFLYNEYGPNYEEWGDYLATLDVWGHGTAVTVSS
Chain of PGT-145 (4995_P16) (antibody) (VL): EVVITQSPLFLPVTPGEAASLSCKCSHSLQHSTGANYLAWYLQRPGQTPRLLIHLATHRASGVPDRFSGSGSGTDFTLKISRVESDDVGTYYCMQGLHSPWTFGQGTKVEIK
Chain of 4993_K13 (PGT-141) (antibody) (VH): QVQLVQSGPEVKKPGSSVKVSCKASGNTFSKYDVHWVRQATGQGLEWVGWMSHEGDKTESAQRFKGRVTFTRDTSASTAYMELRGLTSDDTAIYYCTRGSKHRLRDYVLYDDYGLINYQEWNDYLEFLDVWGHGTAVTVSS
Chain of 4993_K13 (PGT-141) (antibody) (VL): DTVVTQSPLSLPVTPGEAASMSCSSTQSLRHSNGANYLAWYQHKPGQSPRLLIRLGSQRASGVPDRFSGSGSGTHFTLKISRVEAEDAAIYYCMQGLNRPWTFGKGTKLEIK
Chain of PGT-142 (4995_E20) (antibody) (VH): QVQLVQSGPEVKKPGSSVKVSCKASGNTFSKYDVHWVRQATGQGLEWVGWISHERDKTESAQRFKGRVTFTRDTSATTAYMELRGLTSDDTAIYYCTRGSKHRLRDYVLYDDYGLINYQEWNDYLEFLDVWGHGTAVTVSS

Substance: 4970_K22 (PGT-144) (antibody)
- IC50, pseudovirus neutralization [1]: 7.41 mg/L
- IC50 (µg/mL), single-round pseudovirus neutralization [2]: 0.052 µg/mL
- IC50 (µg/mL), single-round pseudovirus neutralization [3]: > 50 µg/mL
- IC50, pseudovirus neutralization [4]: > 50 mg/L
- IC50 (µg/mL), pseudovirus neutralization [5]: > 50 µg/mL
- IC50 (µg/mL), pseudovirus neutralization [6]: > 50 µg/mL
- IC50, single-round pseudovirus neutralization [7]: > 50 mg/L
- IC50 (µg/mL), pseudovirus neutralization [8]: > 50 µg/mL

Substance: 4980_N08 (PGT-143) (antibody)
- IC50, pseudovirus neutralization [1]: 0.854 mg/L
- IC50 (µg/mL), single-round pseudovirus neutralization [2]: 0.003 µg/mL
- IC50 (µg/mL), single-round pseudovirus neutralization [3]: > 50 µg/mL
- IC50, pseudovirus neutralization [4]: > 50 mg/L
- IC50 (µg/mL), pseudovirus neutralization [5]: > 50 µg/mL
- IC50 (µg/mL), pseudovirus neutralization [6]: > 50 µg/mL
- IC50, single-round pseudovirus neutralization [7]: 0.598 mg/L
- IC50 (µg/mL), pseudovirus neutralization [8]: > 50 µg/mL

Substance: 4993_K13 (PGT-141) (antibody)
- IC50, pseudovirus neutralization [1]: 0.4 mg/L
- IC50 (µg/mL), single-round pseudovirus neutralization [2]: 0.001 µg/mL
- IC50 (µg/mL), single-round pseudovirus neutralization [3]: > 50 µg/mL
- IC50, pseudovirus neutralization [4]: > 50 mg/L
- IC50 (µg/mL), pseudovirus neutralization [5]: > 50 µg/mL
- IC50 (µg/mL), pseudovirus neutralization [6]: > 50 µg/mL
- IC50, single-round pseudovirus neutralization [7]: 3.27 mg/L
- IC50 (µg/mL), pseudovirus neutralization [8]: > 50 µg/mL

Substance: 4995_E20 (PGT-142) (antibody)
- IC50, pseudovirus neutralization [1]: 0.484 mg/L
- IC50 (µg/mL), single-round pseudovirus neutralization [2]: 0.002 µg/mL
- IC50 (µg/mL), single-round pseudovirus neutralization [3]: > 50 µg/mL
- IC50, pseudovirus neutralization [4]: > 50 mg/L
- IC50 (µg/mL), pseudovirus neutralization [5]: > 50 µg/mL
- IC50 (µg/mL), pseudovirus neutralization [6]: > 50 µg/mL
- IC50, single-round pseudovirus neutralization [7]: 0.792 mg/L
- IC50 (µg/mL), pseudovirus neutralization [8]: > 50 µg/mL

Substance: 4995_P16 (PGT-145) (antibody)
- IC50, pseudovirus neutralization [1]: 0.045 mg/L
- IC50 (µg/mL), single-round pseudovirus neutralization [2]: 0.013 µg/mL
- IC50 (µg/mL), single-round pseudovirus neutralization [3]: > 50 µg/mL
- IC50, pseudovirus neutralization [4]: 7.08 mg/L
- IC50 (µg/mL), pseudovirus neutralization [5]: > 50 µg/mL
- IC50 (µg/mL), pseudovirus neutralization [6]: > 50 µg/mL
- IC50, single-round pseudovirus neutralization [7]: 0.095 mg/L
- IC50 (µg/mL), pseudovirus neutralization [8]: > 50 µg/mL

Substance: 5114_A19 (PGT-128) (antibody)
- IC50 (µg/mL), pseudovirus neutralization [9]: 0.03 µg/mL
- IC50 (µg/mL), pseudovirus neutralization [10]: > 50 µg/mL
- IC50, pseudovirus neutralization [11]: 0.01 mg/L
- IC50, pseudovirus neutralization [12]: 0.838 mg/L
- Fold IC50 increase relative to wild-type (pseudovirus neutralization) [13]: 1.3 fold
- IC50 (µg/mL), pseudovirus neutralization [14]: 0.067 µg/mL
- IC50 (µg/mL), pseudovirus neutralization [15]: 0.015 µg/mL
- IC50, pseudovirus neutralization [16]: 0.007 mg/L

Substance: 5136_H01 (PGT-131) (antibody)
- IC50 (µg/mL), pseudovirus neutralization [9]: 1.36 µg/mL
- IC50 (µg/mL), pseudovirus neutralization [10]: > 50 µg/mL
- IC50, pseudovirus neutralization [11]: 0.021 mg/L
- IC50, pseudovirus neutralization [12]: > 50 mg/L
- Fold IC50 increase relative to wild-type (pseudovirus neutralization) [13]: 4.8 fold
- IC50 (µg/mL), pseudovirus neutralization [14]: > 50 µg/mL
- IC50 (µg/mL), pseudovirus neutralization [15]: 35.3 µg/mL
- IC50, pseudovirus neutralization [16]: 15.4 mg/L

Substance: 5147_N06 (PGT-130) (antibody)
- IC50 (µg/mL), pseudovirus neutralization [9]: 0.935 µg/mL
- IC50 (µg/mL), pseudovirus neutralization [10]: 0.825 µg/mL
- IC50, pseudovirus neutralization [11]: 0.01 mg/L
- IC50, pseudovirus neutralization [12]: > 50 mg/L
- IC50, pseudovirus neutralization [17]: > 10 mg/L
- Fold IC50 increase relative to wild-type (pseudovirus neutralization) [13]: 3.9 fold
- IC50 (µg/mL), pseudovirus neutralization [14]: > 50 µg/mL
- IC50 (µg/mL), pseudovirus neutralization [15]: 0.258 µg/mL
- IC50, pseudovirus neutralization [18]: 0.474 mg/L
- IC50, pseudovirus neutralization [16]: 0.161 mg/L

Substance: 5343_B08 (PGT-135) (antibody)
- IC50 (µg/mL), pseudovirus neutralization [9]: > 50 µg/mL
- IC50 (µg/mL), pseudovirus neutralization [10]: > 50 µg/mL
- IC50, pseudovirus neutralization [11]: 0.264 mg/L
- IC50, pseudovirus neutralization [12]: > 50 mg/L
- Fold IC50 increase relative to wild-type (pseudovirus neutralization) [13]: 0.1 fold
- IC50 (µg/mL), pseudovirus neutralization [14]: > 50 µg/mL
- IC50 (µg/mL), pseudovirus neutralization [15]: 0.429 µg/mL
- IC50, pseudovirus neutralization [16]: 0.636 mg/L

Substance: PGT-141 (4964_G22; 4993_K13) (antibody)
- IC50 [19]: 0.118 mg/L
- IC50, pseudovirus neutralization [20]: > 50 mg/L
- IC50, pseudovirus neutralization [21]: 0.179 mg/L
- IC50 [22]: 33.1 mg/L
- IC50, pseudovirus neutralization [23]: 0.021 mg/L
- IC50 [24]: 0.497 mg/L

Substance: PGT-142 (4995_E20) (antibody)
- IC50 [19]: 0.081 mg/L
- IC50, pseudovirus neutralization [20]: > 50 mg/L
- IC50, pseudovirus neutralization [21]: 0.221 mg/L
- IC50 [22]: 6.7 mg/L
- IC50, pseudovirus neutralization [23]: 0.013 mg/L
- IC50 [24]: 0.383 mg/L

Substance: PGT-143 (4980_N08) (antibody)
- IC50 [19]: 0.156 mg/L
- IC50, pseudovirus neutralization [20]: > 50 mg/L
- IC50, pseudovirus neutralization [21]: 0.386 mg/L
- IC50 [22]: 13.6 mg/L
- IC50, pseudovirus neutralization [23]: 0.036 mg/L
- IC50 [24]: 1.11 mg/L

Substance: PGT-144 (4970_K22) (antibody)
- IC50 [19]: 44.6 mg/L
- IC50, pseudovirus neutralization [20]: > 50 mg/L
- IC50, pseudovirus neutralization [21]: > 50 mg/L
- IC50 [22]: > 50 mg/L
- IC50, pseudovirus neutralization [23]: 0.105 mg/L
- IC50 [24]: > 50 mg/L

Substance: PGT-145 (4995_P16) (antibody)
- IC50 [19]: 0.003 mg/L
- IC50, pseudovirus neutralization [20]: 14.7 mg/L
- IC50, pseudovirus neutralization [21]: 3.48 mg/L
- IC50 [22]: 0.181 mg/L
- IC50, pseudovirus neutralization [23]: 0.361 mg/L
- IC50 [24]: 0.045 mg/L

Substance: VRC01 (antibody)
- IC50 [19]: 0.084 mg/L
- IC50, pseudovirus neutralization [1]: 0.1 mg/L
- IC50 (µg/mL), single-round pseudovirus neutralization [2]: 0.616 µg/mL
- IC50 (µg/mL), single-round pseudovirus neutralization [3]: 12.6 µg/mL
- IC50, pseudovirus neutralization [4]: 0.722 mg/L
- IC50 (µg/mL), pseudovirus neutralization [5]: 1.16 µg/mL
- IC50, pseudovirus neutralization [20]: 0.075 mg/L
- IC50 (µg/mL), pseudovirus neutralization [6]: > 50 µg/mL
- IC50, single-round pseudovirus neutralization [7]: 0.125 mg/L
- IC50, pseudovirus neutralization [21]: 0.087 mg/L
- IC50 [22]: 0.835 mg/L
- IC50, pseudovirus neutralization [23]: 0.305 mg/L
- IC50 (µg/mL), pseudovirus neutralization [8]: 0.292 µg/mL
- IC50 [24]: 0.091 mg/L
